Molecular target: T1, Flag.RUNX2(P409A) (Homo sapiens (Human), UniProt Q13950 20-521)
T1 construct: also called mutant RUNX2; RUNX2 mutant
Experiment: co-immunoprecipitation, Flag.RUNX2(P409A) and HA.YAP
Method: Mutation of the first proline to an alanine completely abolished transcriptional activity. We reasoned that if YAP was directly interacting with RUNX2, a mutation of the first proline to an alanine in RUNX2 would reduce YAP binding and not affect the repression of the p21 CIP1 promoter. The mutant RUNX2, designated RUNX2 (P409A), was generated and its ability to interact with YAP was assessed. […] We expected that the mutant RUNX2 would retain its ability to bind DNA since the P409A mutation was downstream of the Runt DNA binding domain (amino acids 50-177). To measure RUNX2(P409A) DNA binding, DNA precipitation assays using the wild type 20-mer, double-stranded oligonucleotide from the p21 CIP1 promoter site A were performed using nuclear lysates from HEK293 cells transfected with two mutant Flag.RUNX2(P409A) clones. Both RUNX2(P409A) mutant clones retained DNA-binding activity. After verification of DNA binding, the ability of the RUNX2 mutant protein to repress p21CIP1 promoter activity was determined. NIH3T3 cells were transfected with either RUNX2 or RUNX2(P409A) and luciferase activity was measured. Both mutant RUNX2(P409A) clones and the wild-type RUNX2 were strong repressors of the p21CIP1 promoter. However, HA.YAP was unable to relieve p21 CIP1 promoter repression by the mutant Flag.RUNX2(P409A). […]

T1 sequence (Q13950 other isoform, or with tags, fused parts or gaps P409A P409A): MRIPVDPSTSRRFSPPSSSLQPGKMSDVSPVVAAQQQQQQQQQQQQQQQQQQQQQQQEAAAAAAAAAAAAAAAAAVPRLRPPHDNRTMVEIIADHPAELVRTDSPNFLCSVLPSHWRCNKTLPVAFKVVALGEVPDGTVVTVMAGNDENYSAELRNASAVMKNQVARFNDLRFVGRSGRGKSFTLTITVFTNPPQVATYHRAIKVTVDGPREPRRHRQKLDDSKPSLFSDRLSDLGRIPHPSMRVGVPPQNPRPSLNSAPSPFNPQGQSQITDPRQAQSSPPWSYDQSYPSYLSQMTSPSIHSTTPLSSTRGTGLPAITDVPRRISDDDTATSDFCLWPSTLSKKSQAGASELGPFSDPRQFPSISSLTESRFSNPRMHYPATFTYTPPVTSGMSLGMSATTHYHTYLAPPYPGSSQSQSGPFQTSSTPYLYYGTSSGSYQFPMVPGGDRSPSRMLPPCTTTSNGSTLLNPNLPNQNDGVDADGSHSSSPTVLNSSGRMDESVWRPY

B1: HA.YAP (other, not shown: small tags and cut ends)
chain: MDPGQQPPPQPAPQGQGQPPSQPPQGQGPPSGPGQPAPAATQAAPQAPPAGHQIVHVRGDSETDLEALFNAVMNPKTANVPQTVPMRLRKLPDSFFKPPEPKSHSRQASTDAGTAGALTPQHVRAHSSPASLQLGAVSPGTLTPTGVVSGPAATPTAQHLRQSSFEIPDDVPLPAGWEMAKTSSGQRYFLNHIDQTTTWQDPRKAMLSQMNVTAPTSPPVQQNMMNSASAMNQRISQSAPVKQPPPLAPQSPQGGVMGGSNSNQQQQMRLQQLQMEKERLRLKQQELLRQVRPQELALRSQLPTLEQDGGTQNPVSSPGMSQELRTMTTNSSDPFLNSGTYHSRDESTDSGLSMSSYSVPRTPDDFLNSVDEMDTGDTINQSTLPSQQNRFPDYLEAIPGTNVDLGTLEGDGMNIEGEELMPSLQEALSSDILNDMESVLAATKLDKESFLTWL
notes: Expressed in HEK293 cells and assayed in nuclear lysates; also called HA-tagged YAP; YAP65
  binding result: no binding

Source: patent US8084434 (UNIVERSITY OF MARYLAND, dated 2011)
